This note sets out measurements from the supplement of paper PMC11865577.

Holding throughout (experiment): pull-down binding Z-score (relative to library population); higher = stronger binding
Holding throughout (details): RNA library: Library-2

The subject of data set [1] is TO-3-N3-2 (biotin conjugate). Summed up: (§1)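 Binding is given as a Z-score against the library mean and standard deviation, calculated after removing the beads-only signal and averaging barcoded replicate probes without their highest and lowest values. Cy5- or Cy3-end-labelled RNA library (1 μg) was heat-folded in phosphate/NaCl/KCl buffer and incubated 60 min at 25 °C with streptavidin beads bearing 100 pmol of biotin-conjugated small molecule. After three washes, RNA eluted in hot SDS was hybridised to a DNA barcode microarray for 20 h at 55.5 °C.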

Data set [2] deals with TO-3-N3 (biotin conjugate). The essentials:
as §1

Data set [3] relates to TO-N3 (biotin conjugate). The essentials: as §1
The test system of data set [4] is TO-N3-2 (biotin conjugate). The essentials: as §1

For the sequence “UCACAGAAUGCUGUAGCCUCAAAGAUUUUGGGACUACCAACUCAAACUGUUGA”, the “pull-down binding Z-score” value in data set [1] was -0.271; in data set [2], -0.508; in data set [3], -0.673; in data set [4], -0.508.
Turning to “UUAAUGCCUGUCUGUGUGGAAACUAAAGCCAUAGUUUCAACUAUACAGCGUAAAUAUAAGGGUAUUAA [DMSMaPseq_invitro_SARS-CoV-2_Motif_83]”, the “pull-down binding Z-score” value in data set [1] is 0.502; in data set [2], -0.287; in data set [3], -0.439; in data set [4] it was -0.463.
Taken in the same sequence, the figures for “GCAAGUUGAAUCUGAUGAUUACAUAGCUACUAAUGGACCACUUAAAGUGGGUGGUAGUUGUGUUUUAAGCGGACACAAUCUUGC” were -0.436, -0.696, -0.805 and -0.558.
For AACUUUAGCUUGUUUUGUGCUUGCUGCUGUU, the “pull-down binding Z-score” value in data set [1] is -0.0892; in data set [2], 0.701; in data set [3], 0.34; in data set [4], -0.708.
For the sequence “GCUGAAAUUGUUGACACUGUGAGUGCUUUGGUUUAUGAUAAUAAGCUUAAAGCACAUAAAGACAAAUCAGC”, the “pull-down binding Z-score” value in data set [1] was -0.129; in data set [2], -0.842; in data set [3], -0.634; in data set [4], -0.342.
Regarding UCCUAAAGAGGA, the “pull-down binding Z-score” value in data set [1] is -0.431; in data set [2], 1.2; in data set [3], 0.703; in data set [4] it was -0.731.
The matching figures for “CGGUUGCUUGGUCAGCAAGUGCAUGUCAUGAUGGCAUGGGCUGGCUAACAAUCG [IAV_invivo_NA_6_Motif_7+IAV_invivo_NA_6_Motif_7]”: -0.69, -0.929, -0.939 and -0.222.
The matching figures for “AAGGAGCUGGUGGCCAUAGUUACGGCGCCGAUCUAAAGUCAUUUGACUUAGGCGACGAGCUUGGCACUGAUCCUU [DMSMaPseq_invitro_SARS-CoV-2_Motif_14]”: 0.134, 0.0504, 0.349 and 0.492.
The matching figures for “GGACCAGGAACUAAUCAGACAAGGAACUGAUUACAAACAUUGGCC [DMSMaPseq_invitro_SARS-CoV-2_Motif_522]”: 0.134, 1.03, 1.01 and 0.031.
With “UACUGGUUCUAUACCUUGUA [SARS-CoV-2-Conserved-Structured-4_Interval-7011-7130_Motif_3]”, the “pull-down binding Z-score” value in data set [1] is -0.095; in data set [2], 0.217; in data set [3], -0.0242; in data set [4], -0.722.
Turning to CCUAAACGAACAUGAAAUUUCUUGUUUUCUUAGG, the “pull-down binding Z-score” value in data set [1] is -0.593; in data set [2] it was -0.979; in data set [3], -1.08; in data set [4] it was -0.729.
For the sequence “CGGCGGGCACGUAGUGUAGCUAGUCAAUCCAUCAUUGCCUACACUAUGUCACUUGGUG [SHAPE_invitro_SARS-CoV-2_Motif_429]”, the “pull-down binding Z-score” value in data set [1] was 0.313; in data set [2], 0.745; in data set [3], 1.13; in data set [4] it was 1.07.
For the sequence “GCUGGCCUUGAAGCCCCUUUUCUCUAUCUUUAUGCUUUAGUCUACUUCUUGCAGAGUAUAAACUUUGUAAGAAUAAUAAUGAGGCUUUGGCUUUGC”, the “pull-down binding Z-score” value was -0.413 in data set [1], -0.79 in data set [2], -0.969 in data set [3] and -0.575 in data set [4].
With GCGCUGCCAGAAACUGGCUUCAGCGC [bulge-UUC], the “pull-down binding Z-score” value in data set [1] was -0.243; in data set [2] it was -0.611; in data set [3] it was -0.796; in data set [4] it was -0.304.
Consider “AGGUAAAACCAACAGUGGUUGUUAAUGCAGCCAAUGUUUACCU”, for which the “pull-down binding Z-score” value in data set [1] was -0.615; in data set [2], -0.405; in data set [3], -1.2; in data set [4] it was -1.45.
On to “UAUAACAAUACUAGAUGGAAUUUCACAGUAUUCACUGAGACUCAUUGAUGCUAUGAUGUUCACAUCUGAUUUGGCUACUAACAAUCUAGUUGUA”, for which the “pull-down binding Z-score” value in data set [1] is -0.178; in data set [2], -0.682; in data set [3], -0.688; in data set [4] it was -1.1.
As to UAGUGCUAUGCAGACAAUGCUUUUCACUA, the “pull-down binding Z-score” value in data set [1] was -0.341; in data set [2], -0.863; in data set [3], -1.14; in data set [4] it was -0.838.
Take “GGGCCACUGCCAGAAGACAAUGAACCAAGUGGUUAUGCCC [IAV_invivo_PB1_2_Motif_5+IAV_invivo_PB1_2_Motif_5]”: the “pull-down binding Z-score” value in data set [1] was 0.0011; in data set [2], -0.323; in data set [3] it was 0.0266; in data set [4] it was 0.713.
In the case of “GGUAAUUAUACAGUUUCCUGUUUACC [DMSMaPseq_invitro_SARS-CoV-2_Motif_504]”, the “pull-down binding Z-score” value was -0.713 in data set [1], -0.536 in data set [2], -1.05 in data set [3] and -0.867 in data set [4].
The matching figures for AAGGGAGGGGCGGGUCGGGAA [G4_2A2_NRAS]: 11.1, 8.72, 7.02 and 5.24.
The matching figures for “CCCCAGGGAUGCAAAUAAGGGG [IAV_invivo_PB1_2_Motif_14+IAV_invivo_PB1_2_Motif_14]”: 0.163, 0.0403, -0.0747 and 0.241.
Take AACUGCUUUUGGCUUAGUUGCAGAGUGGUU: the “pull-down binding Z-score” value in data set [1] was -0.132; in data set [2], -0.63; in data set [3], -0.115; in data set [4] it was -0.255.
With “CUCGUCUAUCUUCUGCAGGCUGCUUACGGUUUCGUCCGUGUUGCAGCCGAUCAUCAGCACAUCUAGGUUUUGUCCGGGUGUGACCGAAAGGUAAGAUGGAGAG”, the “pull-down binding Z-score” value in data set [1] was -0.563; in data set [2] it was -0.827; in data set [3], -0.836; in data set [4], -0.32.
For the sequence GAUGGUGGCUGUAUUAAUGCUAACCAAGUCAUCGUC, the “pull-down binding Z-score” value in data set [1] is 0.129; in data set [2], -0.273; in data set [3] it was 0.31; in data set [4], 1.4.
As for “GGGGCCGGGGCCGGGGCCGGGGCCGGGGCCGGGGCC [G4_r(GGGGCC)8]”, the “pull-down binding Z-score” value in data set [1] is 4.66; in data set [2] it was 4.47; in data set [3], 3.9; in data set [4], 3.77.
In the case of “GGAGACAGGUGGUUUCUCAAUCGAUUUACCACAACUCU [SHAPE_invivo_SARS-CoV-2_Motif_209]”, the “pull-down binding Z-score” value was -0.326 in data set [1], -0.078 in data set [2], -0.19 in data set [3] and -0.516 in data set [4].
The matching figures for “GUGAAUUCAACAU [DMSMaPseq_invitro_SARS-CoV-2_Motif_308]”: -0.213, -0.238, -0.428 and -0.524.
On to GCGCGGCCAGAAACUGGCAGCGC [mismatch-GA], for which the “pull-down binding Z-score” value was -0.798 in data set [1], -0.773 in data set [2], -1.33 in data set [3] and -1.21 in data set [4].
Consider “GAAUUUACACCUUUUGAUGUUGUUAGACAAUGCUCAGGUGUUACUUUC”, for which the “pull-down binding Z-score” value in data set [1] was -0.394; in data set [2], 0.167; in data set [3], 0.0292; in data set [4] it was -0.632.
In the case of “AUCAAGACUAUUCAACCAAGGGUUGAAAAGAAAAAGCUUGAU”, the “pull-down binding Z-score” value is -0.241 in data set [1], -0.561 in data set [2], -0.904 in data set [3] and -1.25 in data set [4].
Consider AACACCAGUUUACUCAUUCUUACCUGGUGUU, for which the “pull-down binding Z-score” value in data set [1] is -0.421; in data set [2] it was -0.56; in data set [3], -0.829; in data set [4] it was -1.46.
With “GCUUCCACUGAGAAGU [DMSMaPseq_invitro_SARS-CoV-2_Motif_384]”, the “pull-down binding Z-score” value was -0.576 in data set [1], -0.836 in data set [2], -1.1 in data set [3] and -1.03 in data set [4].
